# Measurements reported in the supplement of paper PMC11246515.
# ± gives the standard deviation of the averaged measurements.
# Experiment: total protein half-life in vivo (active degradation + dilution); higher = more stable protein
# [1] = E. coli NCM3722 delta-clpP delta-lon delta-hslV, growth: N-lim chemostat, doubling time 6 h
# [2] = E. coli NCM3722 delta-clpP, growth: N-lim chemostat, doubling time 6 h
# [3] = E. coli NCM3722 delta-hslV, growth: N-lim chemostat, doubling time 6 h
# [4] = E. coli NCM3722 delta-lon, growth: N-lim chemostat, doubling time 6 h
# [5] = E. coli NCM3722 delta-smpB, growth: N-lim chemostat, doubling time 6 h
# [6] = wild type E. coli NCM3722, growth: C-lim chemostat, doubling time 3 h
# [7] = wild type E. coli NCM3722, growth: C-lim chemostat, doubling time 6 h
# [8] = wild type E. coli NCM3722, growth: C-lim chemostat, doubling time 12 h
# [9] = wild type E. coli NCM3722, growth: N-lim chemostat, doubling time 6 h
# [10] = wild type E. coli NCM3722, growth: N-lim chemostat, doubling time 12 h
# [11] = wild type E. coli NCM3722, growth: P-lim chemostat, doubling time 6 h
# [12] = wild type E. coli NCM3722, growth: P-lim chemostat, doubling time 12 h
Sequence,total protein half-life in vivo [1],total protein half-life in vivo [2],total protein half-life in vivo [3],total protein half-life in vivo [4],total protein half-life in vivo [5],total protein half-life in vivo [6],total protein half-life in vivo [7],total protein half-life in vivo [8],total protein half-life in vivo [9],total protein half-life in vivo [10],total protein half-life in vivo [11],total protein half-life in vivo [12]
MQKLINSVQNYAWGSKTALTELYGMENPSSQPMAELWMGAHPKSSSRVQNAAGDIVSLRDVIESDKSTLLGEAVAKRFGELPFLFKVLCAAQPLSIQVHPNKHNSEIGFAKENAAGIPMDAAERNYKDPNHKPELVFALTPFLAMNAFREFSEIVSLLQPVAGAHPAIAHFLQQPDAERLSELFASLLNMQGEEKSRALAILKSALDSQQGEPWQTIRLISEFYPEDSGLFSPLLLNVVKLNPGEAMFLFAETPHAYLQGVALEVMANSDNVLRAGLTPKYIDIPELVANVKFEAKPANQLLTQPVKQGAELDFPIPVDDFAFSLHDLSDKETTISQQSAAILFCVEGDATLWKGSQQLQLKPGESAFIAANESPVTVKGHGRLARVYNKL,4.5 ± 0.45 h,4.28 ± 0.05 h,5.01 ± 0.19 h,4.64 ± 0.25 h,4.506 ± 0.036 h,3.03 ± 0.032 h,5.48 ± 0.18 h,10.7 ± 0.47 h,4.46 ± 0.15 h,7.24 ± 0.34 h,5.71 ± 0.53 h,10.9 ± 0.41 h
MLSIFKPAPHKARLPAAEIDPTYRRLRWQIFLGIFFGYAAYYLVRKNFALAMPYLVEQGFSRGDLGFALSGISIAYGFSKFIMGSVSDRSNPRVFLPAGLILAAAVMLFMGFVPWATSSIAVMFVLLFLCGWFQGMGWPPCGRTMVHWWSQKERGGIVSVWNCAHNVGGGIPPLLFLLGMAWFNDWHAALYMPAFCAILVALFAFAMMRDTPQSCGLPPIEEYKNDYPDDYNEKAEQELTAKQIFMQYVLPNKLLWYIAIANVFVYLLRYGILDWSPTYLKEVKHFALDKSSWAYFLYEYAGIPGTLLCGWMSDKVFRGNRGATGVFFMTLVTIATIVYWMNPAGNPTVDMICMIVIGFLIYGPVMLIGLHALELAPKKAAGTAAGFTGLFGYLGGSVAASAIVGYTVDFFGWDGGFMVMIGGSILAVILLIVVMIGEKRRHEQLLQERNGG,,,,,,,6.02 ± 0.41 h,11.8 ± 1.2 h,,,,
MRVLLAPMEGVLDSLVRELLTEVNDYDLCITEFVRVVDQLLPVKVFHRICPELQNASRTPSGTLVRVQLLGQFPQWLAENAARAVELGSWGVDLNCGCPSKTVNGSGGGATLLKDPELIYQGAKAMREAVPAHLPVSVKVRLGWDSGEKKFEIADAVQQAGATELVVHGRTKEQGYRAEHIDWQAIGDIRQRLNIPVIANGEIWDWQSAQQCMAISGCDAVMIGRGALNIPNLSRVVKYNEPRMPWPEVVALLQKYTRLEKQGDTGLYHVARIKQWLSYLRKEYDEATELFQHVRVLNNSPDIARAIQAIDIEKL,5.15 ± 0.54 h,4.72 ± 0.35 h,4.92 ± 0.12 h,,4.76 ± 0.15 h,2.89 ± 0.34 h,,10.6 h,5.2 ± 0.37 h,8.91 ± 1.2 h,5.81 ± 0.9 h,11.7 ± 1.4 h
MKIRSQVGMVLNLDKCIGCHTCSVTCKNVWTSREGVEYAWFNNVETKPGQGFPTDWENQEKYKGGWIRKINGKLQPRMGNRAMLLGKIFANPHLPGIDDYYEPFDFDYQNLHTAPEGSKSQPIARPRSLITGERMAKIEKGPNWEDDLGGEFDKLAKDKNFDNIQKAMYSQFENTFMMYLPRLCEHCLNPACVATCPSGAIYKREEDGIVLIDQDKCRGWRMCITGCPYKKIYFNWKSGKSEKCIFCYPRIEAGQPTVCSETCVGRIRYLGVLLYDADAIERAASTENEKDLYQRQLDVFLDPNDPKVIEQAIKDGIPLSVIEAAQQSPVYKMAMEWKLALPLHPEYRTLPMVWYVPPLSPIQSAADAGELGSNGILPDVESLRIPVQYLANLLTAGDTKPVLRALKRMLAMRHYKRAETVDGKVDTRALEEVGLTEAQAQEMYRYLAIANYEDRFVVPSSHRELAREAFPEKNGCGFTFGDGCHGSDTKFNLFNSRRIDAIDVTSKTEPHP,5.82 ± 0.15 h,5.37 ± 0.84 h,5.9 ± 0.44 h,5.52 ± 0.8 h,5.81 ± 0.086 h,,5.809 ± 0.058 h,12.8 h,5.29 h,11.3 ± 0.39 h,6 ± 0.39 h,10.8 ± 2.4 h
MATAWYKQVNPPQRKALFSAWLGYVFDGFDFMMIFYILHIIKADLGITDIQATLIGTVAFIARPIGGGFFGAMADKYGRKPMMMWAIFIYSVGTGLSGIATNLYMLAVCRFIVGLGMSGEYACASTYAVESWPKNLQSKASAFLVSGFSVGNIIAAQIIPQFAEVYGWRNSFFIGLLPVLLVLWIRKSAPESQEWIEDKYKDKSTFLSVFRKPHLSISMIVFLVCFCLFGANWPINGLLPSYLADNGVNTVVISTLMTIAGLGTLTGTIFFGFVGDKIGVKKAFVVGLITSFIFLCPLFFISVKNSSLIGLCLFGLMFTNLGIAGLVPKFIYDYFPTKLRGLGTGLIYNLGATGGMAAPVLATYISGYYGLGVSLFIVTVAFSALLILLVGFDIPGKIYKLSVAK,,,,,,3.16 h,> 8 h,9.57 h,,,5.55 h,9.48 ± 2.4 h
MNNIQIRNYQPGDFQQLCAIFIRAVTMTASQHYSPQQISAWAQIDESRWKEKLAKSQVWVAIINAQPVGFISRIEHYIDMLFVDPEYTRRGVASALLKPLIKSESELTVDASITAKPFFERYGFQTVKQQRVECRGAWFTNFYMRYKPQH,4.81 h,3.71 ± 0.28 h,3.82 h,,2.9 h,,> 8 h,,> 8 h,,,9.48 ± 0.24 h
MNNDNTDYVSNESGTLSRLFKLPQHGTTVRTELIAGMTTFLTMVYIVFVNPQILGAAQMDPKVVFVTTCLIAGIGSIAMGIFANLPVALAPAMGLNAFFAFVVVGAMGISWQTGMGAIFWGAVGLFLLTLFRIRYWMISNIPLSLRIGITSGIGLFIALMGLKNTGVIVANKDTLVMIGDLSSHGVLLGILGFFIITVLSSRHFHAAVLVSIVVTSCCGLFFGDVHFSGVYSIPPDISGVIGEVDLSGALTLELAGIIFSFMLINLFDSSGTLIGVTDKAGLIDGNGKFPNMNKALYVDSVSSVAGAFIGTSSVTAYIESTSGVAVGGRTGLTAVVVGVMFLLVMFFSPLVAIVPPYATAGALIFVGVLMTSSLARVNWDDFTESVPAFITTVMMPFTFSITEGIALGFMSYCIMKVCTGRWRDLNLCVVVVAALFALKIILVD,,,,,,3.27 h,5.84 h,,,,,
MTEIYEQAKHSLQGEDFSSFNYLFAVNKLLSNPVSYDLGRDLIVRALDSRERFSEHTTILKNMVRKSGLFPYLKKEFTSLTPDDLRVLELYRTPFSDGYVFHSMQFHIFDLLKSGQNVVLSAPTSMGKSAIVDSLLGMGTLKRLVLVVPTVALADETRRRLQERFGDRYQIIHHSSQVCHSDQAVYVLTQERVNERDDIVDIDLFVIDEFYKLAFRQLKSGDIDHQDERVIELNIALSKLLKVSRQFYLTGPFVNSIRGLEKLGYPHTFVSTDFNTVALDVKTFGIKANDDKAKLKALGEIAHACVDATIIYCKSPTVAGLVARELIRLGHGTPTENPHVDWVSEEFDADWDYTVALRNGIGLHFGALPRALQQYTADQFNAGKLRFLLCTSTIIEGVNTIAKNVVIYDNRDGTRSIDKFTHGNIKGRAGRMGVHFVGKIFCLEEIPEDNLNQEVDIPLGIQGIDTPINLLASVQPDHLSEFSQDRFDEVFINDRVSIDLVKKHSYFRVEQFEMLQSMFEMMDDNEFSSLVFHWTPATNFLKTFAKIIARLVPHTFSRNGVPVKPTDVMIAKLAGYLSAESYSEYLKNQIDYARQWISEGEKRTLSIALNNDLKLITNTFGYTLPKVLSLMEDVVKHHAVKRGIRSKVDYTHVKLAFESFHLPPGVNALEEIGIPIQTLHRLVDLLEFSDEADVDELSQYLRDTQDIWSRSIGYVDQMFIRRALGIRRH,6.27 ± 1.3 h,,,,,,,,,,,
MSEKTFLVEIGTEELPPKALRSLAESFAANFTAELDNAGLAHGTVQWFAAPRRLALKVANLAEAQPDREIEKRGPAIAQAFDAEGKPSKAAEGWARGCGITVDQAERLTTDKGEWLLYRAHVKGESTEALLPNMVATSLAKLPIPKLMRWGASDVHFVRPVHTVTLLLGDKVIPATILGIQSDRVIRGHRFMGEPEFTIDNADQYPEILRERGKVIADYEERKAKIKADAEEAARKIGGNADLSESLLEEVASLVEWPVVLTAKFEEKFLAVPAEALVYTMKGDQKYFPVYANDGKLLPNFIFVANIESKDPQQIISGNEKVVRPRLADAEFFFNTDRKKRLEDNLPRLQTVLFQQQLGTLRDKTDRIQALAGWIAEQIGADVNHATRAGLLSKCDLMTNMVFEFTDTQGVMGMHYARHDGEAEDVAVALNEQYQPRFAGDDLPSNPVACALAIADKMDTLAGIFGIGQHPKGDKDPFALRRAALGVLRIIVEKNLNLDLQTLTEEAVRLYGDKLTNANVVDDVIDFMLGRFRAWYQDEGYTVDTIQAVLARRPTRPADFDARMKAVSHFRTLDAAAALAAANKRVSNILAKSDEVLSDRVNASTLKEPEEIKLAMQVVVLRDKLEPYFTEGRYQDALVELAELREPVDAFFDKVMVMVDDKELRINRLTMLEKLRELFLRVADISLLQ,6.02 ± 0.36 h,6.28 ± 0.94 h,5.56 ± 0.53 h,5.82 ± 0.65 h,5.74 ± 0.6 h,3.278 ± 0.0052 h,5.89 ± 0.085 h,11 ± 1 h,5.72 ± 0.31 h,10.5 ± 0.11 h,6.31 ± 0.44 h,12.2 ± 1.2 h
